Experimental data reported in paper PMC6332680.

Columns and labels:
[1] = target: E. coli ribose-phosphate pyrophosphokinase (EcKPRS) (E. coli (strain K12)); test: crystal structure; 2.22 Å, space group C222_(1), three molecules in the asymmetric unit; hexamer from 3 molecules of the asymmetric unit and 3 symmetry related molecules; crystallised with 0.2 M magnesium chloride, 0.1 M HEPES pH 7.5, 30% PEG 400, 1 mM ADP, 291 K
[2] = target: E. coli ribose-phosphate pyrophosphokinase (EcKPRS) (E. coli (strain K12)); test: SEC; size exclusion chromatography, data not shown

E. coli ribose-phosphate pyrophosphokinase (EcKPRS) (enzyme)
stoichiometry N [1]: 6 | stoichiometry N [2]: 6
